According to paper PMC5521201:

Target: T1, CTCF (UniProt P49711 1-727)
T1 sequence: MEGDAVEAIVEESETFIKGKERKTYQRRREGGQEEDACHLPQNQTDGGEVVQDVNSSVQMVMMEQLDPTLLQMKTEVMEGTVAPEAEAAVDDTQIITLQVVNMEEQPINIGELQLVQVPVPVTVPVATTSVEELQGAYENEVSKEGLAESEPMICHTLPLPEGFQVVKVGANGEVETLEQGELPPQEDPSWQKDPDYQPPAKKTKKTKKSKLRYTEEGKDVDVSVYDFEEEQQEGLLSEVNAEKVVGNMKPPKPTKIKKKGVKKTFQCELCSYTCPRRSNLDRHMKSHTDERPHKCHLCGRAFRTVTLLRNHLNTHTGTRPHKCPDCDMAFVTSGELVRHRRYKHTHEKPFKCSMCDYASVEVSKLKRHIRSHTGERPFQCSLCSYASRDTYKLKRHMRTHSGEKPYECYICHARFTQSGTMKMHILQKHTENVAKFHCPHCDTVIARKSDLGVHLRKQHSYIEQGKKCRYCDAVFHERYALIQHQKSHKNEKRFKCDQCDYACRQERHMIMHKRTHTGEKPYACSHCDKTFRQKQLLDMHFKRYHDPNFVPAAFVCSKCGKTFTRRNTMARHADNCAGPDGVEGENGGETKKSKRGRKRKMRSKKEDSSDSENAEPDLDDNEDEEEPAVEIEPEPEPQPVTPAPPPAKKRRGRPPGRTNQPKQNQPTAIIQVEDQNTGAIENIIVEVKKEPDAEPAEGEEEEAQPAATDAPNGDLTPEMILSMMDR
Assay: EMSA

B1: CTCF WT (BZLF1 promoter CTCF site) (dsDNA)
DNA 1: TCGTCCAAATGGCCACGAGGGGGCGGGTGGCTCAGGTC
DNA 2: GACCTGAGCCACCCGCCCCCTCGTGGCCATTTGGACGA
binding result: binds
